From PMC9057628

What was measured:
[1] = target: recombinant full-length human TTRWT with N-terminal AviTag (human) (UniProt P02766); experiment: SEC; time series: TTR in 1M urea pH 7.6 at room temperature on a rotating platform for 1 hour to 7 days; oligomers between 200 and 600 kDa; also with 100 uM H2O2 or 5 mM DTT
[2] = target: recombinant full-length human TTRV122I with N-terminal AviTag (human) (UniProt P02766); experiment: as above

Q: “recombinant full-length human TTRWT with N-terminal AviTag (from UniProt P02766 21-147) (natural protein)” was tested. Which stoichiometry N (protein subunits) [1] did it give?
A: 10

Q: With “recombinant full-length human TTRV122I with N-terminal AviTag (from UniProt P02766 21-147) (natural protein)” as the substance, how does the stoichiometry N (protein subunits) [2] read?
A: 15
